Source: the nanobody polyreactivity screen of Harvey et al. (2022)

Experiment: yeast display, Sf9 membrane polyspecificity reagent, FACS + sequencing; frameworks hold sequencing errors
In short: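 Galactose-induced (36–48 hours) yeast carrying a synthetic nanobody display library were exposed to 10% biotinylated, detergent-solubilized Sf9 membrane reagent at 4 °C for 1 hour. FACS followed streptavidin microbead enrichment, using low and high (top ~1%) gates for expression (anti-HA) and reagent binding (streptavidin). Colony PCR, MiSeq 2 × 250 sequencing and CDR-length filtering followed. Labels for polyreactivity reflect the gate of origin.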

Sequence	polyreactivity (PSR sort gate)
QVQLVESGGGLVQAGGSLRLSCAASGLTFASYAMGWYRQAPGKERELVAVISASGGSTYYADSVKGRFTISRDNAKNPVYLQMNSLKPEDTAVYYCAARHSLYGYWGQGTLVTVSS	high polyreactivity
QVQLVESGGGLVQAGGSLRLSCAASGLTFAYYAMGWYRQAPGKERELVAAISLSGGSTYYADSVKGRFTISRDNAKNTVYLQMNSLKPEDTAVYYCNKGSYYWWDPGSTYIDDYWGQGTQVTVSS	low polyreactivity
QVQLVESGGGLVQAGGSLRLSCAASGLTFDAYAMGWYRHAPRKERELVAAISWSGGSTYYADSVKGRFTISRDNAKNTVYLQMNSLKPEDTAVYYSNARYAQFRFWGQGTQVTVSS	high polyreactivity
QVQLVESGGGLVQAGGSLRLSCAASGLTFDGNAMGWYRQAPGKERELVATIRSGGGTNYADSVKGRFTISRDNAKNTVYLQMNSLKPEDTAVYYCNADYRSVYSPVQYPGEYYYWGQGTQVTVSS	low polyreactivity
QVQLVESGGGLVQAGGSLRLSCAASGLTFDGNTMGWYRQAPGKERELVAAISFDGGNTYADSVNGRFTISRDNAKNTVYLQMNSLKPEDTAVYYDYWGQGTQVTVSS	low polyreactivity
QVQLVESGGGLVQAGGSLRLSCAASGLTFDKIAMGWYRQAPGKERELVAAISTSGGGTYYADSVKGRFTISRDNPKTTVYLQRNSLKPEDTAVYYCAAKHYYYSPYVRYDPPPGYYWGQGTQVTVSS	high polyreactivity
QVQLVESGGGLVQAGGSLRLSCAASGLTFDKYVMGWYRQAPGKERELVAAITKGGGSTYYADSVKGRFTISRDNAKNTVYLQMNSLKPEDTAVYYCAVTLPLRYWGQGTQVTVSS	high polyreactivity
QVQLVESGGGLVQAGGSLRLSCAASGLTFDPYALGWYRQAPGKERELVATISWSTSSTYYADSVKGRFTISRDNAKNTVYLQMNSLKPEDTAVYYCNAGYIESWFLQWIEYDYWGQGTQVTVSS	high polyreactivity
QVQLVESGGGLVQAGGSLRLSCAASGLTFDPYAMGWYRQAPGKEREFVAAINSDDGSTYYADSVKGRFTISRDNAKNTVYLQMNSLKPEDTAVYYCNADLAHFLWYQYDYWGQGTQVTVSS	low polyreactivity
QVQLVESGGGLVQAGGSLRLSCAASGLTFDPYAMGWYRQAPGKEREFVATITTSGDSTYYADSVKGRFTISRDNAKNTVYLQMNSLKPEDTAVYYCNTQSRTLGWPLDYWGQGTQVTVSS	high polyreactivity
QVQLVESGGGLVQAGGSLRLSCAASGLTFDVYAMGWYRQAPGKERELVAAISSIGGSTYYADSVKGRFTISRDNAKNTVYLQMNSLKPEDTAVYYCAAAISLYSYDYWGQGTQVTVSS	low polyreactivity
QVQLVESGGGLVQAGGSLRLSCAASGLTFDWYAMGWYRQAPGKERELVAAISWNGVSTDYADSVKGRFTISRDNAKNTVYLQMNSLKPEDTAVYYCAADPPWYLYVGFDYWGQGTQVSVSS	high polyreactivity
QVQLVESGGGLVQAGGSLRLSCAASGLTFDWYTKGWSRQAPGKERELVATINSGGSTDYADSVKGRFTISRDNAKNTVYLQLNSLKPEDTAVYYCNAEYGYSGVGDDYWGQGTQVTVSS	low polyreactivity
QVQLVESGGGLVQAGGSLRLSCAASGLTFDYYAMGWYRQAPGKERELVAAITRRGGGTYYADSVKGRFTISRDNAKNTVYLQMNSLTPEDTAVYYCNADRRSWSALHRYDYWGQGTQVTVSS	high polyreactivity
QVQLVESGGGLVQAGGSLRLSCAASGLTFEKYAMGWYRQAPGKERELVAAISQDGGSTYYADSVKGRFTISRDNAKNTVYLQMNSLKPEDTAVYYCAAEDPDSWLPWHLYDYWGQGTQVTVSS	low polyreactivity
QVQLVESGGGLVQAGGSLRLSCAASGLTFEVYAMGWYRQAPGKERELVAAISSGGGSTYYADSVKGRFTISRDNAKNTVYLQMNSLKPEDTAVYYCNAVAKLYYWRYDYWGQGTQVTVSS	low polyreactivity
QVQLVESGGGLVQAGGSLRLSCAASGLTFEVYAMGWYRQAPGKERELVAAISSGGGSTYYADSVKGRFTISRDNGKNTVYLQMNSLKPEDTAVYYCNADALIAAYKYFPYTYRFNYWGQGTQVTVSS	low polyreactivity
